Here are results for one molecule from publication PMC9989923, “A curcumin analogue GO‐Y030 depletes cancer stem cells by inhibiting the interaction between the HSP70/HSP40 complex and its substrates” (FEBS Open Bio, 2023).

Assay [1] has as its target T1, recombinant human HSP70‐1A protein (human, UniProt P0DMV8 1-641).
T1 construct: recombinant human HSP70-1A (gene HSPA1A), bought from StressMarq Biosciences; No catalogue number printed; source: bought: StressMarq Biosciences
The assay can be described thus: ELISA; substrate-binding assay: CMLA immobilised at 500 ng per well; 50 ng per well HSP70-1A or dnaJ-B1 in 20 mM Tris-HCl pH 7.5, 20 mM NaCl, 10 mM MgCl2, 0.2% BSA, 60 min at 30 °C; detected with anti-HSP70 or anti-DNAJB1 pAb and alkaline phosphatase-labelled secondary antibody; with dimethylsulfoxide, GO-Y030 or PFT-μ. The following applies: both partners purified.

Assay [2] deals with T2, recombinant human HSP40/Hdj1 (dnaJ‐B1) protein (human, UniProt P25685 1-340).
T2 construct: recombinant human HSP40/Hdj1 (dnaJ-B1, gene DNAJB1), bought from Enzo Life Sciences; No catalogue number printed; source: bought: Enzo Life Sciences
T2 sequence (P25685 whole entry): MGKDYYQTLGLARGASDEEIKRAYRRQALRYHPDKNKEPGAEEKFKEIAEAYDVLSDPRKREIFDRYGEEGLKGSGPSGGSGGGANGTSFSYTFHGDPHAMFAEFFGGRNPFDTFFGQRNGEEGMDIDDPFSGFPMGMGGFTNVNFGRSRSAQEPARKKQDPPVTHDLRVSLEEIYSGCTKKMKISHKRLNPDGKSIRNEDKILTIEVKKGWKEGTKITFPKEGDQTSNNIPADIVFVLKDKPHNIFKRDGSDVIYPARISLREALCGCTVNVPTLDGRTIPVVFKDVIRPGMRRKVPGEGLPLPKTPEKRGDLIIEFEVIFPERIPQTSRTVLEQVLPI
Described as above. The settings on record: both partners purified.

T1 sequence (P0DMV8 whole entry): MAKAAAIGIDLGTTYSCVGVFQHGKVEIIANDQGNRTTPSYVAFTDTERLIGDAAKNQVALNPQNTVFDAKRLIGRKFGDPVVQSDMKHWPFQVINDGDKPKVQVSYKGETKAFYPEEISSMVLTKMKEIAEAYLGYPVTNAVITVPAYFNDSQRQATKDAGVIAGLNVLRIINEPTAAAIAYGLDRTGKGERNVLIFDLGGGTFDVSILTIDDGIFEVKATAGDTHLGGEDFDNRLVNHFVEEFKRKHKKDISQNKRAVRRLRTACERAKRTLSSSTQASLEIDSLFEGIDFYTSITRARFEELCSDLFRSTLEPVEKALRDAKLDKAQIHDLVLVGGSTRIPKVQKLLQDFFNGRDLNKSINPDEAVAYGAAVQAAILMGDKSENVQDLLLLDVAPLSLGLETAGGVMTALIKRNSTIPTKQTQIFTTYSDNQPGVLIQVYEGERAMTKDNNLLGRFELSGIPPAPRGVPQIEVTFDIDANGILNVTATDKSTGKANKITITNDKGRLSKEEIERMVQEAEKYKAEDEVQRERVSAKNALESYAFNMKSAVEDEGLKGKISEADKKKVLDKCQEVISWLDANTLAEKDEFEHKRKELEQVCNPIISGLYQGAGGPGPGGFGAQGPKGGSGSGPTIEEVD

B1: carboxymethylated α‐lactalbumin (natural protein, bovine, UniProt P00711 20-142, looked up)
chain: EQLTKCEVFRELKDLKGYGGVSLPEWVCTTFHTSGYDTQAIVQNNDSTEYGLFQINNKIWCKDDQNPHSSNICNISCDKFLDDDLTDDIMCVKKILDKVGINYWLAHKALCSEKLDQWLCEKL
modifications: reduced with 20 mM dithiothreitol in 8 M urea and alkylated with 40 mM iodoacetamide (called carboxymethylated); permanently unfolded
notes: also called CMLA; carboxymethylated lactalbumin; source: bovine α-lactalbumin bought: Sigma-Aldrich; reduced in 8 M urea with dithiothreitol, alkylated with iodoacetamide, dialysed against PBS
Regarding B1, the binding result in assay [1] and in assay [2] was “binds” throughout.
